# According to paper PMC2826804 (Journal of molecular biology, 2009):
# B1: GST-LARP6 fusion protein (La ribonucleoprotein domain family, member 6) (natural protein, human, UniProt Q9BRS8 1-491, looked up)
# chain: MAQSGGEARPGPKTAVQIRVAIQEAEDVDELEDEEEGAETRGAGDPARYLSPGWGSASEEEPSRGHSGTTASGGENEREDLEQEWKPPDEELIKKLVDQIEFYFSDENLEKDAFLLKHVRRNKLGYVSVKLLTSFKKVKHLTRDWRTTAHALKYSVVLELNEDHRKVRRTTPVPLFPNENLPSKMLLVYDLYLSPKLWALATPQKNGRVQEKVMEHLLKLFGTFGVISSVRILKPGRELPPDIRRISSRYSQVGTQECAIVEFEEVEAAIKAHEFMITESQGKENMKAVLIGMKPPKKKPAKDKNHDEEPTASIHLNKSLNKRVEELQYMGDESSANSSSDPESNPTSPMAGRRHAATNKLSPSGHQNLFLSPNASPCTSPWSSPLAQRKGVSRKSPLAEEGRLNCSTSPEIFRKCMDYSSDSSVTPSGSPWVRRRRQAEMGTQEKSPGTSPLLSRKMQTADGLPVGVLRLPRGPDNTRGFHGHERSRACV
# Molecular target: the molecule itself
# Experiment: native gel or EMSA
protein,measurement,value
B1,binding result,binds
